Consider 3 molecules from article PMC2853374 (2010).

Assay [1] concerns the target OmpR~P (Escherichia coli) (UniProt P0AA16). Briefly: FRET. Conditions: cited from earlier work.
A further assay addresses OmpR (Escherichia coli) (UniProt P0AA16). Briefly: FRET. Conditions: cited from earlier work.
The target of a further assay is T1, OmpR (Escherichia coli, UniProt P0AA16).
T1 chain: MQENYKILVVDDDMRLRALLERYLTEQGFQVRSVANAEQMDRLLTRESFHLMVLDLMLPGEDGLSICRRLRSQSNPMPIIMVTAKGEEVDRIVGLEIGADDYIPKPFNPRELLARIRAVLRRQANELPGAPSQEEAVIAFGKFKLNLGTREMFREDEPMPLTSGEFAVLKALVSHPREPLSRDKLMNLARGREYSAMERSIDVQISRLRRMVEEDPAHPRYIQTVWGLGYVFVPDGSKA
Briefly: fluorescence anisotropy. A general note: Fluorescence polarisation rises when a labelled molecule tumbles more slowly, as on binding a larger partner.

As usually defined, the Kd is the equilibrium constant for the complex coming apart. For the molecule EnvZ-GFP (from UniProt P0AEJ4), the Kd was 1600 nM in assay [1] and 500 nM with OmpR (Escherichia coli).

B1: EnvZc cytoplasmic domain (protein)
chain: FNHMAAGVKQLADDRTLLMAGVSHDLRTPLTRIRLATEMMSEQDGYLAESINKDIEECNAIIEQFIDYLRTGQ
For the molecule B1, in the assay with OmpR, the Kd is 425 nM.

B2: EnvZc cytoplasmic domain (protein)
chain: FNHMAAGVKQLADDRTLLMAGVSHDLRTPLTRIRLATEMMSEQDGYLAESINKDIEECNAIIEQFIDYLRTGQ
modifications: ompC DNA (C1-C2-C3)
In the assay with OmpR, B2 displayed a Kd of 385 nM.
